From publication PMC6385231, “Activity-Regulated Cytoskeleton-Associated Protein (Arc/Arg3.1) is Transiently Expressed after Heat Shock Stress and Suppresses Heat Shock Factor 1” (Scientific Reports, 2019) come the findings set out here.

The target in the experiment is T1, GST-tagged human HSF1 (human, UniProt Q00613 1-529).
T1 construct: Heat shock factor 1 (HSF1), human (hHSF1); The authors surmise that GST dimers induce HSF1 oligomerisation; also called GST-HSF1; GST-hHSF1
T1 sequence (looked up): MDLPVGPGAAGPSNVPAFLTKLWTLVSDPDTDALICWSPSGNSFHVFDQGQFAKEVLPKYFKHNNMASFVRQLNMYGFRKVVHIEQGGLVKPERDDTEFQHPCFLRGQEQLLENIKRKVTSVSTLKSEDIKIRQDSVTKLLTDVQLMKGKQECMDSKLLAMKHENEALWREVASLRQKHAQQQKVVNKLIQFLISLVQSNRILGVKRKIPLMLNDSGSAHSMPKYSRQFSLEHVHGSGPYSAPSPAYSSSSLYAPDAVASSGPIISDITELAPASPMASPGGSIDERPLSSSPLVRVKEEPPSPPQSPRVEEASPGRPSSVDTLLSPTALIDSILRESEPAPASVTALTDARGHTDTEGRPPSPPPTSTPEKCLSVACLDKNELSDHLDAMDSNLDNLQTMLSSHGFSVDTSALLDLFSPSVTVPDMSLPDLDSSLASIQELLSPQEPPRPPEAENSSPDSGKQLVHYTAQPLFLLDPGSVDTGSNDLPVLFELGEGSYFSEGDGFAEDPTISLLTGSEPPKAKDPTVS
Description: pull-down; GST or GST-hHSF1 on glutathione-agarose beads incubated with purified His-Arc in 20 mM MOPS pH 7.2, 100 mM KCl, 0.5% Tween, 2 μg/mL aprotinin, 3 h at 4°C; Western analysis with anti-GST and anti-Arc; with and without heat shock treatment. Conditions: both partners purified.

B1: His-tagged human Arc/Arg3.1 (natural protein, UniProt Q7LC44 1-396, looked up)
chain: MELDHRTSGGLHAYPGPRGGQVAKPNVILQIGKCRAEMLEHVRRTHRHLLAEVSKQVERELKGLHRSVGKLESNLDGYVPTSDSQRWKKSIKACLCRCQETIANLERWVKREMHVWREVFYRLERWADRLESTGGKYPVGSESARHTVSVGVGGPESYCHEADGYDYTVSPYAITPPPAAGELPGQEPAEAQQYQPWVPGEDGQPSPGVDTQIFEDPREFLSHLEEYLRQVGGSEEYWLSQIQNHMNGPAKKWWEFKQGSVKNWVEFKKEFLQYSEGTLSREAIQRELDLPQKQGEPLDQFLWRKRDLYQTLYVDADEEEIIQYVVGTLQPKLKRFLRHPLPKTLEQLIQRGMEVQDDLEQAAEPAGPHLPVEDEAETLTPAPNSESVASDRTQPE
notes: Arc/Arg3.1 (activity-regulated cytoskeleton-associated protein), human (hArc/Arg3.1); The construct and its purification are not described in the methods; also called His-Arc; His-Arc/Arg3.1; source: purified
As to B1, the binding result is on record as “binds”.
